Results taken from paper PMC7062661, “Expression and purification of the 5′-nucleotidase YitU from Bacillus species: its enzymatic properties and possible applications in biotechnology” (Applied Microbiology and Biotechnology, 2020).

Columns and labels:
Assay in all cases: purified protein
[1] = substrate: Cc1cc2nc3c(=O)[nH]c(=O)nc-3n(C[C@H](O)[C@H](O)[C@H](O)COP(=O)(O)O)c2cc1C; conditions: 50 mM imidazole pH 7.0, 5 mM MgCl2, 30 °C
[2] = substrate: NC(=O)c1ncn([C@@H]2O[C@H](COP(=O)(O)O)[C@@H](O)[C@H]2O)c1N; conditions: 50 mM imidazole pH 7.0, 5 mM MgCl2, 30 °C, Hill plot fit (sigmoidal kinetics)
[3] = substrate: Nc1ccn([C@@H]2O[C@H](COP(=O)(O)O)[C@@H](O)[C@H]2O)c(=O)n1; conditions: 50 mM imidazole pH 7.0, 5 mM MgCl2, 30 °C
[4] = substrate: Nc1nc2c(ncn2[C@@H]2O[C@H](COP(=O)(O)O)[C@@H](O)[C@H]2O)c(=O)[nH]1; conditions: 50 mM imidazole pH 7.0, 5 mM MgCl2, 30 °C
[5] = substrate: Nc1nc2c(ncn2[C@H]2C[C@H](O)[C@@H](COP(=O)(O)O)O2)c(=O)[nH]1; conditions: 50 mM imidazole pH 7.0, 5 mM MgCl2, 30 °C
[6] = substrate: Nc1ncnc2c1ncn2[C@@H]1O[C@H](COP(=O)(O)O)[C@@H](O)[C@H]1O; conditions: 50 mM imidazole pH 7.0, 5 mM MgCl2, 30 °C
[7] = substrate: Nc1ncnc2c1ncn2[C@H]1C[C@H](O)[C@@H](COP(=O)(O)O)O1; conditions: 50 mM imidazole pH 7.0, 5 mM MgCl2, 30 °C
[8] = substrate: O=c1[nH]c(=O)c2ncn([C@@H]3O[C@H](COP(=O)(O)O)[C@@H](O)[C@H]3O)c2[nH]1; conditions: 50 mM imidazole pH 7.0, 5 mM MgCl2, 30 °C

B1: Ht-YitUBs (Bacillus subtilis subsp. subtilis str. 168) (protein)
chain: METKPYLIALDLDGTLLKDDKTISENTLHTIQRLKDDGHYVCISTGRPYRSSSMYYQQMELTTPIVNFNGAFVHHPQDDSWGRYHTSLPLDVVKQLVDISESYNVHNVLAEVIDDVYFHYHDEHLIDAFNMNTTNVTVGDLRENLGEDVTSVLIHAKEEDVPAIRSYLSDVHAEVIDHRRWAAPWHVIEIIKSGMNKAVGLQKISDYYGVPRERIIAFGDEDNDLEMLEFAGCGVAMGNGIDAVKQIANRTTATNEEDGVARFLKEYFSL
Km [1]: 0.096 ± 0.015 mM | Vmax [1]: 43.2 µmol/min/mg | kcat [1]: 23 s⁻¹ | kcat/Km [1]: 239000 M⁻¹ s⁻¹ | K0.5 [2]: 10.19 ± 1.50 mM | Vmax [2]: 21.2 µmol/min/mg | kcat [2]: 11.3 s⁻¹ | kcat/Km [2]: 1110 M⁻¹ s⁻¹ | Km [3]: 17.45 ± 1.82 mM | Vmax [3]: 73.7 µmol/min/mg | kcat [3]: 39.2 s⁻¹ | kcat/Km [3]: 2250 M⁻¹ s⁻¹ | Km [4]: 7.00 ± 0.29 mM | Vmax [4]: 40 µmol/min/mg | kcat [4]: 21.3 s⁻¹ | kcat/Km [4]: 3040 M⁻¹ s⁻¹ | Km [5]: 5.61 ± 0.79 mM | Vmax [5]: 25.9 µmol/min/mg | kcat [5]: 13.8 s⁻¹ | kcat/Km [5]: 2460 M⁻¹ s⁻¹ | Km [6]: 14.32 ± 1.01 mM | Vmax [6]: 52.9 µmol/min/mg | kcat [6]: 28.2 s⁻¹ | kcat/Km [6]: 1970 M⁻¹ s⁻¹ | Km [7]: 8.24 ± 0.42 mM | Vmax [7]: 49.4 µmol/min/mg | kcat [7]: 26.2 s⁻¹ | kcat/Km [7]: 3190 M⁻¹ s⁻¹ | Km [8]: 21.74 ± 2.93 mM | Vmax [8]: 70.5 µmol/min/mg | kcat [8]: 37.5 s⁻¹ | kcat/Km [8]: 1720 M⁻¹ s⁻¹
